From patent US7867500B2, “Cofactor that modulates steroid receptor activities” (The United States of America as represented by the …, priority 2004, dated 2011)
Blank lines part the entries; values can stand above or below the molecule they belong to.

Legend:
[1] = molecular target: T1, GRIP1 (Mus musculus, UniProt Q61026); experiment: Whole cell co-immunoprecipitation in Cos-7 cells: HA-GRIP1; type: binding; conditions: EtOH ± 1 μM Dex, 2 hr
T1 construct: expressed in transfected cells; host or cells: Cos-7
Experimental: FIG. 7C1-3 illustrate whole cell co-immunoprecipitation of STAMP, GR, and TIF2/GRIP1. Cos-7 cells that had been co-transfected with Flag/STAMP (or Flag itself), HA/GRIP1, and GR plasmids (10 μg of each/150 mm dish) for 48 hr were treated for 2 hr with EtOH±1 μM Dex before being lysed as described in Example 1. Lysate was either analyzed on SDS-PAGE gels or treated with anti-Flag antibody to immunoprecipitate Flag/STAMP. The pellets were separated on SDS-PAGE gels and Western blotted with anti-Flag (FIG. 7C1), anti-HA (FIG. 7C2), or anti-GR antibodies (FIG. 7C3). In each panel, lane 1=5.7% of input lysate, lane 2=IP pellet of Flag/STAMP, HA/GRIP1, and GR+EtOH, lane 3=IP pellet of Flag/STAMP, HA/GRIP1, and GR+Dex, and lane 4=control IP pellet of Flag, HA/GRIP1, and GR+EtOH. Similar results were obtained in a second experiment.
Immunoprecipitations were conducted as generally described in Wang et al. (2004) Mol. Endocrinol. 18: 1476-95, with slight modifications. The day before transfection, Cos-7 cells were seeded into 150 mm dishes at 200,000 cells per dish containing 20 ml of media. On the next day, about 30 μg of DNA/dish was transfected with 60 μl of FuGene reagent. […]

[2] = molecular target: T2, ERα (Homo sapiens, UniProt P03372); experiment: Mammalian two-hybrid assay with VP16 full length receptor: ERα; type: cell-based; conditions: 1 μM estradiol
T2 construct: plus VP16 fused to the indicated full length receptors; expressed in transfected cells; host or cells: CV-1
T2 sequence (P03372 1-595): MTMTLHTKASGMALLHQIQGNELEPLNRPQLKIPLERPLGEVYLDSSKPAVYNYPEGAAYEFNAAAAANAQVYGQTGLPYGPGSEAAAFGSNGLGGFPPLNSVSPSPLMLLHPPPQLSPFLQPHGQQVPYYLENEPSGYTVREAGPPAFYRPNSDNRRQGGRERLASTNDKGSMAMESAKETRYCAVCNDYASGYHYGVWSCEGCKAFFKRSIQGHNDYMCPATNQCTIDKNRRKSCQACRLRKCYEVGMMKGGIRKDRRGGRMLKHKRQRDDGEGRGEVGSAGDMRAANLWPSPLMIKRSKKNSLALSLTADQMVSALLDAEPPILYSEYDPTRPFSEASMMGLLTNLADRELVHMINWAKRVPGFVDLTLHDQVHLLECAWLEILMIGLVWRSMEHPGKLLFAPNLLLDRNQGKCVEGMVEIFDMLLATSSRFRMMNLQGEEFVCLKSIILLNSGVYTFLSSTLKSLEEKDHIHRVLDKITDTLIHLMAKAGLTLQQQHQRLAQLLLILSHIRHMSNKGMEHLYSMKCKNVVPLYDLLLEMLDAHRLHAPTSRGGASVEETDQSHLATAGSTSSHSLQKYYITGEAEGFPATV
Experimental: FIG. 6C1-3 illustrate the association of STAMP with assorted steroid/nuclear receptors, including glucocorticoid receptors (GRs), progesterone receptors (PRs), androgen receptors (ARs), estrogen receptors (ER α or β), PPARγ2 receptors, thyroid receptor beta (TR), and retinoid (α) receptors (RAR α or RXR α). Triplicate samples of CV-1 cells were transfected (as described for FIG. 6B) with GAL, or GAL fused to TIF2.4 or STAMP834C, plus VP16 fused to the indicated full length receptors and incubated with the appropriate steroid (1 μM Dex, 20 nM R5020, 1 nM R1881, 0.1 μM triiodothyronine, or 1 μM estradiol, roziglitazone, or 9-cis-retinoic acid). The average relative luciferase activities of 2-3 experiments±S.E.M. were then plotted. FIG. 6C1 illustrates the effects of STAMP association upon GR, PR and AR induced expression. FIG. 6C2 illustrates the effects of STAMP association upon ERα, ERβ and PPARγ2 induced expression. FIG. 6C3 illustrates the effects of STAMP association upon TR, RARα and RXRα induced expression.
These assays were conducted as described (He et al., 2002). […]

T1 sequence (Q61026 5-1462 limits assumed, one chain of several): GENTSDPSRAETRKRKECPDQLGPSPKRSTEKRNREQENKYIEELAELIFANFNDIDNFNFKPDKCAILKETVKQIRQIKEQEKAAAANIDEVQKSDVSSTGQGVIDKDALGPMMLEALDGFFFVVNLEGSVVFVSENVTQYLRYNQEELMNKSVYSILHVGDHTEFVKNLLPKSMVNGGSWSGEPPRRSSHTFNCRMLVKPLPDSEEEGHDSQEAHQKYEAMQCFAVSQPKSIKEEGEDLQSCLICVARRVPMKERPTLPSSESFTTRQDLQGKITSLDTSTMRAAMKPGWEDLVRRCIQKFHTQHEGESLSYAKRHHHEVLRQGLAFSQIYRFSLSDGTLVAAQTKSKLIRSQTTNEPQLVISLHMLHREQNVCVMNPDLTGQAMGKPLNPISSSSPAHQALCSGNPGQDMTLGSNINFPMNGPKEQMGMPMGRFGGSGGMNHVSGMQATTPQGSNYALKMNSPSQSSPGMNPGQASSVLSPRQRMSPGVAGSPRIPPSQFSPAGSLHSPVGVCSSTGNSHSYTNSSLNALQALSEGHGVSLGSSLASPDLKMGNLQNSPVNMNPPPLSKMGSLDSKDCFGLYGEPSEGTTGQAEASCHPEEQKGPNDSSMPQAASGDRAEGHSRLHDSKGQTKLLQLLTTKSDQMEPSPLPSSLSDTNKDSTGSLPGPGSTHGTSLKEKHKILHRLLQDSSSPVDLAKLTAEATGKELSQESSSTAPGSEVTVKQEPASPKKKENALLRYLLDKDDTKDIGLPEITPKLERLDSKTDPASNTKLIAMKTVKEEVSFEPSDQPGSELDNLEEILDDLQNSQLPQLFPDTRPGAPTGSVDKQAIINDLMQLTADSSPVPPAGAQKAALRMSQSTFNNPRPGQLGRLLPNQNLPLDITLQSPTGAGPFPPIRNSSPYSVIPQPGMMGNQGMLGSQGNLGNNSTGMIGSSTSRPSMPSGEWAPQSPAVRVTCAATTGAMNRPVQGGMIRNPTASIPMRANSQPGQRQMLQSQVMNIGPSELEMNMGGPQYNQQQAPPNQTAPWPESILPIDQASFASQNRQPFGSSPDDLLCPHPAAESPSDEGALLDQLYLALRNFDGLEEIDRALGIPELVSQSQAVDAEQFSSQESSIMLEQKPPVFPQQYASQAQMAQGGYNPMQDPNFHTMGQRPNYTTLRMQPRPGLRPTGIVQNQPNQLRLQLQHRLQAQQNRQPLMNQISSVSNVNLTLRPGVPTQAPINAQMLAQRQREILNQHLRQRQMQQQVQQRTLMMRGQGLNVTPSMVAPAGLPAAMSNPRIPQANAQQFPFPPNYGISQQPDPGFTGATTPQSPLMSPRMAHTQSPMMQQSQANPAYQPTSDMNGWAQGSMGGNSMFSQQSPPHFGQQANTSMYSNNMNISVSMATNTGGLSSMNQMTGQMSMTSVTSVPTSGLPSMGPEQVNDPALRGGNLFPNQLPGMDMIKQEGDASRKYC

B1: STAMP: SRC-1 and TIF2 Associated Modulatory Protein, 1277 amino acid human polypeptide, expressed from transfected plasmid (protein)
chain: MARDLEETASSSEDEEVISQEDHPCIMWTGGCRRIPVLVFHADAILTKDNNIRVIGERYHLSYKIVRTDSRLVRSILTAHGFHEVHPSSTDYNLMWTGSHLKPFLLRTLSEAQKVNHFPRSYELTRKDRLYKNIIRMQHTHGFKVFHILPQTFLLPAEYAEFCNSYSKDRGPWIVKPVASSRGRGVYLINNPNQISLEENILVSRYINNPLLIDDFKFDVRLYVLVTSYDPLVIYLYEEGLARFATVRYDQGAKNIRNQFMHLTNYSVNKKSGDYVSCDDPEVEDYGNKWSMSAMLRYLKQEGRDTTALMAHVEDLIIKTIISAELAIATACKTFVPHRSSCFELYGFDVLIDSTLKPWLLEVNLSPSLACDAPLDLKIKASMISDMFTVVGFVCQDPAQRASTRPIYPTFESSRRNPFQKPQRCRPLSASDAEMKNLVGSAREKGPGKLGGSVLGLSMEEIKVLRRVKEENDRRGGFIRIFPTSETWEIYGSYLEHKTSMNYMLATRLFQDRMTADGAPELKIESLNSKAKLHAALYERKLLSLEVRKRRRRSSRLRAMRPKYPVITQPAEMNVKTETESEEEEEVALDNEDEEQEASQEESAGFLRENQAKYTPSLTALVENTPKENSMKVREWNNKGGHCCKLETQELEPKFNLMQILQDNGNLSKMQARIAFSAYLQHVQIRLMKDSGGQTFSASWAAKEDEQMELVVRFLKRASNNLQHSLRMVLPSRRLALLERRRILAHQLGDFIIVYNKETEQMAEKKSKKKVEEEEEDGVNMENFQEFIRQASEAELEEVLTFYTQKNKSASVFLGTHSKISKNNNNYSDSGAKGDHPETIMEEVKIKPPKQQQTTEIHSDKLSRFTTSAEKEAKLVYSNSSSGPTATLQKIPNTHLSSVTTSDLSPGPCHHSSLSQIPSAIPSMPHQPTILLNTVSASASPCLHPGAQNIPSPTGLPRCRSGSHTIGPFSSFQSAAHIYSQKLSRPSSAKAGSCYLNKHHSGIAKTQKEGEDASLYSKRYNQSMVTAELQRLAEKQAARQYSPSSHINLLTQQVTNLNLATGIINRSSASAPPTLRPIISPSGPTWSTQSDPQAPENHSSSPGSRSLQTGGFAWEGEVENNVYSQATGVVPQHKYHPTAGSYQLQFALQQLEQQKLQSRQLLDQSRARHQAIFGSQTLPNSNLWTMNNGAGCRISSATASGQKPTTLPQKVVPPPSSCASLVPKPPPNHEQVLRRATSQKASKGSSAEGQLNGLQSSLNPAASVPITSSTDPAHTKI
co-immunoprecipitation of GRIP1 with Flag-STAMP by anti-Flag antibody [1]: co-immunoprecipitated

interaction with estrogen receptor α [2]: lack of interaction
B2: STAMP834C: STAMP fragment amino acids 834-1277, receptor interaction domain (RID) (protein)
chain: GDHPETIMEEVKIKPPKQQQTTEIHSDKLSRFTTSAEKEAKLVYSNSSSGPTATLQKIPNTHLSSVTTSDLSPGPCHHSSLSQIPSAIPSMPHQPTILLNTVSASASPCLHPGAQNIPSPTGLPRCRSGSHTIGPFSSFQSAAHIYSQKLSRPSSAKAGSCYLNKHHSGIAKTQKEGEDASLYSKRYNQSMVTAELQRLAEKQAARQYSPSSHINLLTQQVTNLNLATGIINRSSASAPPTLRPIISPSGPTWSTQSDPQAPENHSSSPGSRSLQTGGFAWEGEVENNVYSQATGVVPQHKYHPTAGSYQLQFALQQLEQQKLQSRQLLDQSRARHQAIFGSQTLPNSNLWTMNNGAGCRISSATASGQKPTTLPQKVVPPPSSCASLVPKPPPNHEQVLRRATSQKASKGSSAEGQLNGLQSSLNPAASVPITSSTDPAHTKI
